Reference: US20220185900A1 (Regeneron, published 2022)

T1: Macaca fascicularis (mf) RET.mmh (Macaca fascicularis)
T1 construct: also called monkey RET
T1 chain: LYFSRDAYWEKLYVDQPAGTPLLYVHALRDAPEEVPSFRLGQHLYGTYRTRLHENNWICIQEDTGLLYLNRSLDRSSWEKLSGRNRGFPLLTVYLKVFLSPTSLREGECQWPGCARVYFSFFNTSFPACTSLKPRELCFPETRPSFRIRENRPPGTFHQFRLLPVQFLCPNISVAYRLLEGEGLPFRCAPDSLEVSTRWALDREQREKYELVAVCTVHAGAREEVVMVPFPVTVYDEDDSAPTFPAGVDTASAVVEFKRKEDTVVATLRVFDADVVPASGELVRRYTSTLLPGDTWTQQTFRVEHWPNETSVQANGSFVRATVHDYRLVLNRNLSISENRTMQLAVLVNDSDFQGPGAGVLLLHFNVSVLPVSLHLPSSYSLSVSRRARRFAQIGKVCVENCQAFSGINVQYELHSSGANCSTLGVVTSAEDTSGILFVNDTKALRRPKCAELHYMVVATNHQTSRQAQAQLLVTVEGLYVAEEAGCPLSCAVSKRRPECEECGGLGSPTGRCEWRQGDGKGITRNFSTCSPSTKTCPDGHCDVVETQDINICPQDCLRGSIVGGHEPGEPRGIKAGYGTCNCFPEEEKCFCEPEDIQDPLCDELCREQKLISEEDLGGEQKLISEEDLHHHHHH


Tests used:
hRET.mFc [1] = target: T2, hRET.mFc (human); test: SPR Biacore T200, mAb capture, 25 C
T2 construct: also called dimeric human RET
Method: (§1) Binding affinities and kinetic constants of human anti-RET antibodies were determined by surface plasmon resonance (Biacore T200) at […] (Tables 2-3). […] Binding equilibrium dissociation constants (KD) and dissociative half-lives (t_{1/2}) were calculated from the kinetic rate constants as: KD [M]=kd/kₐ; and t_{1/2}(min)=(ln2/(60*kd). Calculations were performed using BiacoreT200 evaluation software v1.0.

[2] = target: T1, Macaca fascicularis (mf) RET.mmh; test: SPR Biacore T200, mAb capture, 25 C
Method: as §1

hRET.mmh [3] = target: T3, hRET.mmh (human, UniProt P07949 29-635, biotinylated in the ELISA of Example 4 (biot-hRET.mmh); not in the SPR of Example 3); test: SPR Biacore T200, mAb capture, 25 C
T3 construct: also called biot-hRET.mmh; soluble monomeric human RET
Method: as §1

hRET.mFc [4] = target: T2, hRET.mFc; test: SPR Biacore T200, mAb capture, 37 C
Method: as §1

[5] = target: T1, Macaca fascicularis (mf) RET.mmh; test: SPR Biacore T200, mAb capture, 37 C
Method: as §1

hRET.mmh [6] = target: T3, hRET.mmh; test: SPR Biacore T200, mAb capture, 37 C
Method: as §1

hRET.mmh [7] = target: T3, hRET.mmh; test: competition sandwich ELISA: 1 nM biot-hRET.mmh + antibody, plate-coated GDNF/GFRα1 co-complex
Method: The ability of anti-RET antibodies to block the binding of human RET to pre-complexed plate bound GDNF:GFRα1 was assessed using a competition sandwich ELISA.
Antibody-RET mixtures were incubated for 1 hour at RT and then transferred to microtiter plates previously coated with the hGDNF/hGFRα1 co-complex. Binding was allowed to proceed for 1 hr at RT followed by extensive washing. […] Plates were read at 450 nm and data analysis used a sigmoidal dose-response model within Prism™ software.
The absorbance values of the wells containing the highest concentration for each antibody were used to determine the blocking percent at maximum concentration antibody tested.

Binder | Kd (hRET.mFc [1]) [nM] | koff (hRET.mFc [1]) [s⁻¹] | kon (hRET.mFc [1]) [M⁻¹ s⁻¹] | t½ (hRET.mFc [1]) [min] | Kd [2] [nM] | koff [2] [s⁻¹] | kon [2] [M⁻¹ s⁻¹] | t½ [2] [min] | Kd (hRET.mmh [3]) [nM] | koff (hRET.mmh [3]) [s⁻¹] | kon (hRET.mmh [3]) [M⁻¹ s⁻¹] | t½ (hRET.mmh [3]) [min] | Kd (hRET.mFc [4]) [nM] | koff (hRET.mFc [4]) [s⁻¹] | kon (hRET.mFc [4]) [M⁻¹ s⁻¹] | t½ (hRET.mFc [4]) [min] | Kd [5] [nM] | koff [5] [s⁻¹] | kon [5] [M⁻¹ s⁻¹] | t½ [5] [min] | further results
H4H8071P (antibody, human IgG4, V domains shown, human IgG4 Fc (H4H prefix)) VH: EVQLVESGGGLVQPGGSLRLSCAASGFTFTTYFMSWVRQAPGKGLEWVSGISGSGTSTFYVDSMKGRFTISRDNSKNTLYLQMNSLRVEDTAVYFCAKENTYGHFDFWGQGTLVTVSS VL: DIQLTQSPSFLSASVGDRVTITCWASQDISSHLAWYQQKPGKAPKVLIYDASTLQSGVPSRISGSGSGTEFTLTISSLQPEDFAAYYCQQLDGYPYTFGQGTKLEIK | 0.89 | 0.000179 | 200000 | 65 | 2.32 | 0.000272 | 117000 | 43 | 1.41 | 0.000219 | 156000 | 53 | 1.04 | 0.000312 | 300000 | 37 | 7.04 | 0.00114 | 161000 | 10 | Kd (hRET.mmh [6]): 3.79 nM; koff (hRET.mmh [6]): 0.000896 s⁻¹; kon (hRET.mmh [6]): 236000 M⁻¹ s⁻¹; t½ (hRET.mmh [6]): 13 min; % Max Blocking (hRET.mmh [7]): 72%; IC50 (hRET.mmh [7]): 0.36 nM
H4H8079P (antibody, human IgG4, V domains shown, human IgG4 Fc (H4H prefix)) VH: EVQLVESGGGLVKPGGSLRLSCAASGFTFSNAWMSWVRQAPGKGLEWVGRIKSKTDGGTSEYAAPVKGRFTISRDDSKNTLFLQMNSLKSEDAAVYYCTTGRSWSDYFDFWGQGTLVTVSS VL: not shown | 0.72 | 0.000151 | 209000 | 77 | 3.73 | 0.000435 | 117000 | 27 | 2.68 | 0.000384 | 143000 | 30 | 2 | 0.000523 | 261000 | 22 | 13.3 | 0.00205 | 154000 | 6 | Kd (hRET.mmh [6]): 9.1 nM; koff (hRET.mmh [6]): 0.00189 s⁻¹; kon (hRET.mmh [6]): 207000 M⁻¹ s⁻¹; t½ (hRET.mmh [6]): 6 min; % Max Blocking (hRET.mmh [7]): 93%; IC50 (hRET.mmh [7]): < 0.25 nM
H4H8076P (antibody, human IgG4, V domains shown, human IgG4 Fc (H4H prefix)) VH: QVQLQQSGPGLVKPSQTLSLTCAISGDSVSSNSVAWNWIRQSPSRGLEWLGRTYYRSNWYNTYAVSVKSRITIDPDTSKNQFSLQLNSVTPEDTALYYCARGHRYSGSYFDYWGQGTLVTVSS VL: DIQMTQSPSSLSASVGDRVTITCRASQNINSYFNWYQQKPGKAPKLLIYAASSLQSGVPSRFSGGGSGTDFTLTISSLQPEDFATYYCQQTYTIPWTFGQGTKVEIK | 0.686 | 0.000171 | 250000 | 68 | 1.54 | 0.000327 | 212000 | 35 | 1.51 | 0.000338 | 224000 | 34 | 2.15 | 0.000675 | 314000 | 17 | 4.84 | 0.0014 | 289000 | 8 | Kd (hRET.mmh [6]): 4.31 nM; koff (hRET.mmh [6]): 0.00136 s⁻¹; kon (hRET.mmh [6]): 315000 M⁻¹ s⁻¹; t½ (hRET.mmh [6]): 9 min; % Max Blocking (hRET.mmh [7]): 95%; IC50 (hRET.mmh [7]): < 0.25 nM
H4H8060P (antibody, human IgG4, V domains shown, human IgG4 Fc (H4H prefix)) VH: QVTLKESGPVLVKPTETLTLTCTVSGFSLSSARMGVSWIRQPPGKALEWLAHIFSTDEKSYSTSLKSRLSISKDTSLSQVVLIMTNMDPVDTATYYCARRTTMAPYYYYYGMDVWGHGTTVTVSS VL: AIQMTQSPASLSASVGDRVTITCRASQGIRNDLGWYQQKPGKAPKLLISAASSLQSGVPSRFSGSGSGTDFTLTISSLQPEDFATYYCLQDYKYPWTFGQGTKVEIK | 0.179 | 0.000149 | 827000 | 78 | 0.523 | 0.000393 | 751000 | 29 | 0.409 | 0.000311 | 761000 | 37 | 0.558 | 0.000592 | 1.06e+06 | 19 | 1.88 | 0.00209 | 1.12e+06 | 6 | Kd (hRET.mmh [6]): 1.41 nM; koff (hRET.mmh [6]): 0.00157 s⁻¹; kon (hRET.mmh [6]): 1.11e+06 M⁻¹ s⁻¹; t½ (hRET.mmh [6]): 7 min; % Max Blocking (hRET.mmh [7]): 95%; IC50 (hRET.mmh [7]): < 0.25 nM
H4H8062P (antibody, human IgG4, V domains shown, human IgG4 Fc (H4H prefix)) VH: EVQLVESGGGLVQPGGSLRLSCSVSGFIFKNYAMRWVRQAPGKGLEWVSGISGSGGITYYADSVRGRVTISRDNSKNTLDLQMTNLRAEDTAVYYCAKAEYSSSGAYFDYWGQGTLVTVSS VL: DIQMTQSPSSLSASVGDRVTITCRASQSIHNYLNWYLQRPGKAPKLLVYAASSLQSGVPSRFSGRGSGTDFTLTISSLQPEDFATYYCQQSYSAPYSFGQGTKLEIK | 0.49 | 0.00022 | 400000 | 53 | 1.46 | 0.000733 | 501000 | 16 | 0.733 | 0.00037 | 505000 | 31 | 2.4 | 0.00088 | 366000 | 13 | 6.31 | 0.00428 | 678000 | 3 | Kd (hRET.mmh [6]): 2.65 nM; koff (hRET.mmh [6]): 0.00181 s⁻¹; kon (hRET.mmh [6]): 682000 M⁻¹ s⁻¹; t½ (hRET.mmh [6]): 6 min; % Max Blocking (hRET.mmh [7]): 97%; IC50 (hRET.mmh [7]): < 0.25 nM
